The record followed here is the supplement of paper PMC12042874.

The nature of this data set: amyloid nucleation score (Sup35N fusion, yeast selection) (log enrichment); library NNK1; higher = more nucleation; inactive = no reads after selection. A digest of the protocol: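 Libraries of peptides of 20 random codons fused to Sup35N were expressed in psi-negative yeast and induced 24 hours with 100 μM copper sulfate. Selection was 7 days at 30°C on medium lacking adenine and uracil, and plasmid inserts were Illumina-sequenced before and after selection. Nucleation score is the DiMSum log enrichment of output over input reads, centred on the mode score of non-aggregating sequences, and sequences with under 100 input reads were left out.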

± gives the uncertainty stated by the source.

Turning to SDIMDFEY, the amyloid nucleation score result is “inactive”. For GPVSGHRPIVRD the value was -0.179 ± 1.1. In turn, GYHDGISMFSCVYSCYQSVS displayed an amyloid nucleation score of 5.92 ± 0.061. In the case of MPGRNLRLNKVR it was 0.273 ± 0.4; in that of CQCGMVGVL, -0.005 ± 0.45; in that of NANINFSNTMQADVL, 0.116 ± 0.31. In the case of NQYMIQGKVSRSNIMCLGMR it was -0.067 ± 0.21. On to LNVRGITIKLCHFRRIWYAQ, for which the amyloid nucleation score was -1.25 ± 0.83.

Regarding NRISALWSTMLWFAY, the amyloid nucleation score is -0.008 ± 0.27. The substance SIVMGSVMTFGFDIFL returned an amyloid nucleation score of 4.47 ± 0.066. GGPDTMEMGSFGDARATDAG returned an amyloid nucleation score of 1.03 ± 0.93. LAGGVHLRPHERKEFLD: the amyloid nucleation score result was “inactive”.

The substance QDRYR yielded an amyloid nucleation score of 0.156 ± 0.56.

Regarding AFDWSMSAKDQINEQTLNSV, the amyloid nucleation score was 0.617 ± 0.28. On to RLGRGKMKGWLSMLCRDCAL, for which the amyloid nucleation score was -0.918 ± 0.65. In the case of EDMPFMTLKVIVFVTLMHLR, the amyloid nucleation score came to 2.02 ± 0.62.

For MNKWSG, the amyloid nucleation score was found to be 1.4 ± 0.63.

TLKAVHTLTTD yielded an amyloid nucleation score of 2.4 ± 0.23. In the case of APQSYVVVWFCVARKRCSWD it was -0.303 ± 0.53; in that of MLKILNSSFFDTIVYAYITC, 3.6 ± 0.081. Regarding YCLFNLESG, the amyloid nucleation score is 0.315 ± 0.53. On to TLLNDIFLLCCDSTSNDLMC, for which the amyloid nucleation score came out at 1.56 ± 0.43. On to FQAGREKSCCAYEVGDGCLV, for which the amyloid nucleation score was -1.16 ± 2.4. Consider SSSLSKLVFWKYFCIDEGLS, for which the amyloid nucleation score amounted to 0.491 ± 0.53. In the case of HVGIDIAVTWLQVKRVAMAS, the amyloid nucleation score turned out to be 0.037 ± 0.31. With CYVVKVLFRPIY, the amyloid nucleation score came to 1.01 ± 0.97. VFGKITSWWFRTIDFWERRI: the amyloid nucleation score is -0.428 ± 0.64.

TSINGYSVAKSGGSMYCIGM: the amyloid nucleation score was -0.194 ± 0.67. On to AGAVCWACDR, for which the amyloid nucleation score is -1.4 ± 0.77. For GEYCKSLSTE, the amyloid nucleation score stood at 1.01 ± 0.93. GTSLRSGWRYCEFTRRSCLV displayed an amyloid nucleation score of 0.068 ± 0.6. Turning to CSAYDQVWDTNGRVCFA, the amyloid nucleation score is -0.003 ± 0.41. In the case of TDSSKGRGARRGGSNSSHSW, the amyloid nucleation score is -0.419 ± 0.61. As to MLKRVVVLLRPSVRGRVDRV, the amyloid nucleation score is -0.11 ± 0.28. On to VLCGNPLFRFVLGWRFCVWG, for which the amyloid nucleation score was found to be 0.335 ± 1.1.

Substance FSHDRGYLIFQVIRGHHCFM gave an amyloid nucleation score of 0.277 ± 0.57. CEVRFLCWYGFIWRYN: the amyloid nucleation score is -0.336 ± 0.74.

As for ILYTCSSQSASFTGLWTSGL, the amyloid nucleation score turned out to be 2.03 ± 0.16. Take MISGPNFEVYRLAVINGRSW: the amyloid nucleation score was 0.848 ± 0.58. As for TENCDLCKQLAAVLC, the amyloid nucleation score is -0.812 ± 0.93.

With CLNGGNFYRSLTRAKTNKNF, the amyloid nucleation score was -0.258 ± 1.1.

SSLPDAWVYLGSSWLEDHGR displayed an amyloid nucleation score of 0.461 ± 0.7. In the case of EMKATIHLMLKINNTWFSVP it was 2.07 ± 0.11; in that of FSCVIGFPKHRNDTLVTERA, 6.65 ± 0.067. Take SWMKSLLFVFGLTCQMRECV: the amyloid nucleation score is -0.544 ± 0.61.

For the substance LFCIERWMSNCFG, the amyloid nucleation score was 0.112 ± 0.75. The substance LVKNHYHFMANLGCP gave an amyloid nucleation score of 0.133 ± 1.4. In turn, IQNDCILVNSVSWYCVSGPP had an amyloid nucleation score of 5.29 ± 0.064. In the case of YVFNFLIMLLLGVA, the amyloid nucleation score is -0.665 ± 0.32. As to MIMDVVKGFVFRSSINSKRY, the amyloid nucleation score came out at 3.27 ± 0.088. In the case of QTDSTVGD it was -0.522 ± 1.4; in that of TSSMCVFVSGNSEFVLWALE, 0.286 ± 0.51. For DTNFYLFMTHG the value was 0.244 ± 1; for WTRSFRAFGSSVYWEGRGNH, 1.22 ± 0.26; for NMVLRPHVMYAWNEPELGNC, -0.22 ± 0.39. Turning to VSHSGCKSF, the amyloid nucleation score is -0.434 ± 0.47.

Consider RGCRGSRQSVGSKR, for which the amyloid nucleation score was -0.166 ± 0.31. In the case of KRNLRVHSTGIFRYRIWKA it was -0.047 ± 0.48. Regarding YGFCGLMHSNSIHYSNMQSR, the amyloid nucleation score is 0.685 ± 0.48. In the case of FLVMREFMIGCVRAG it was 0.186 ± 0.97; in that of TWLTRYLPLNEFRMG, 0.776 ± 0.36. Regarding FGIRVVSR, the amyloid nucleation score turned out to be 0.842 ± 0.73. In the case of AFGLMNCDRLSLTSNINTGG, the amyloid nucleation score was -0.4 ± 0.41.

With HPLAAVSKLCRRSRLGLSSR, the amyloid nucleation score was -0.124 ± 0.35. In the case of AISLVAVRFMGMGEGVSDKN it was 5.33 ± 0.1. Regarding WDYSRLLFAYNKIVTERNNG, the amyloid nucleation score is -0.356 ± 0.29. Take CNVEAG: the amyloid nucleation score was -1.55 ± 1.1. For IGSGYW the value was -0.091 ± 0.52; for LALMEEPLVLDNGSLDTKLS, 0.579 ± 1.1; for PECTNDKVY, 0.541 ± 0.52. In the case of YKGRTPSSRLASLVCRGG it was -0.198 ± 0.64. For LVSTYGEIQKLHGYLLGMLG, the amyloid nucleation score was found to be 0.002 ± 0.42. For FNMIVSYAFVAFIVNIKVEI the value was 1.99 ± 0.12; for GVGRGCYSMACCSAGRLTDG, -0.122 ± 0.85. Turning to SLIISKEGRYVFYVCLRGWW, the amyloid nucleation score was -0.447 ± 0.42. For CHEQHSASREYVDREYGKYS the value was “inactive”; for IFHGWVTGCCLVDNLLFYCT, 5.42 ± 0.1; for YGKWWWVYRKTSVRRGDGAG, 0.49 ± 0.54. MYRDDAGFEGMF registered an amyloid nucleation score of 1.19 ± 0.61.

Regarding PYTWTTTVPSAPKGLF, the amyloid nucleation score came out at 0.096 ± 0.48. QDWHDYLYGKFIGNNYGKYI returned an amyloid nucleation score of 1.44 ± 0.47. For the substance WVHWWFRHVNMACQNGGFIF, the amyloid nucleation score is -0.565 ± 0.68. In the case of AIVVKNDFTGSPRF it was “inactive”; in that of FFCMKGKILIINALLEIDVG, 0.079 ± 0.34; in that of ACCYVDLKIKFNVLPAVNIK, “inactive”. For the substance SNLDLHRSVLSRLGKYLDFP, the amyloid nucleation score is 5.35 ± 0.081. In the case of LRTWDSIFYDLMGACGRPWV, the amyloid nucleation score is -0.521 ± 0.54. Substance FNWSRNHGF gave an amyloid nucleation score of 0.013 ± 0.76. As for LCLGHRH, the amyloid nucleation score is -0.818 ± 1.6.

As to VGESHCLNADLVSYQHN, the amyloid nucleation score is -0.374 ± 0.6. In the case of VIILNVVFNLLYEKAFFFR, the amyloid nucleation score stood at 0.278 ± 0.68. Turning to FRFRLGNFGLRFRGYPERII, the amyloid nucleation score amounted to 0.405 ± 0.3.

As for FWVKVLY, the amyloid nucleation score was -0.654 ± 0.37. The substance YQLWPQASMKMCD returned an amyloid nucleation score of 0.258 ± 0.4.

Take LSPLDIPTRDLPIFLTFKDT: the amyloid nucleation score result is “inactive”. In the case of SVKTLLVRGILSLSIGFYMS, the amyloid nucleation score came to 0.294 ± 0.52. As to RGYAVNAGYSVCMYWLGTLL, the amyloid nucleation score stood at 0.695 ± 0.53.

Regarding ICICLMLSVIGSSSHVLLDW, the amyloid nucleation score is 1.08 ± 0.72. For the substance RDLAPVLRYVPNESKAGVGV, the amyloid nucleation score is -0.626 ± 0.53. Substance YLCKVRACTRKSQSLLCGAS registered an amyloid nucleation score of 0.678 ± 0.65.

Substance DVTAPRLQIGLKVKHMKPFF yielded an amyloid nucleation score of 0.423 ± 0.42. In the case of TYGGYR, the amyloid nucleation score is -0.343 ± 0.93. NCERVTDYELIRGSSILKVV registered an amyloid nucleation score of 0.311 ± 0.73. Substance AGLRIYVVSFILTYGKRFSS displayed an amyloid nucleation score of 0.12 ± 0.4.

For TRLSMLIYALTGNVMSGSCV, the amyloid nucleation score was 0.505 ± 0.46.

Turning to RSFSCLSQVFTYVPLTVRET, the amyloid nucleation score came to 0.22 ± 0.6. For the substance YISLRFISYYYYVRGKFYMK, the amyloid nucleation score came out at 0.672 ± 0.56. As to MYISYSLNKTPIVFAPCTVH, the amyloid nucleation score is -0.018 ± 0.48. For MYSISCIVNY the value was 2.56 ± 0.15. For ISLDFDNYRVILLKRLVGVM the value was -0.594 ± 0.33; for DIFYLCFRVYSEVGLSINVV, -0.529 ± 0.84.

On to IHALLRQNMD, for which the amyloid nucleation score was -0.599 ± 0.39. For RYKIQPAIPVQEGLMGLSDP the value was 0.282 ± 0.43; for TYDLPTYIILVSPQYLCANT, -0.06 ± 0.27.

QPALPSGPVDQS yielded an amyloid nucleation score of 0.42 ± 0.35. Substance VEIYGCTSPDQWSVANSCTA returned an amyloid nucleation score of 0.047 ± 0.36. As for YKSLMFWLVLVSVFMIRRNI, the amyloid nucleation score stood at 2.62 ± 0.26. For QLSVVNFKEM the value was -0.219 ± 0.7; for VLDEYFCNLC, 5.989 ± 0.058; for IMTPIRGNN, 0.209 ± 0.34. In the case of LVTFRGGYNVDVIMWNNVRR it was 3.69 ± 0.063; in that of MNMSKRFLRKLCERSRMPNR, 0.21 ± 0.61. As for FTMSTISCSGSDTIVID, the amyloid nucleation score was -0.503 ± 0.25. Consider VVSTPHSN, for which the amyloid nucleation score is -0.099 ± 0.85. In the case of SQLFYAILSIHYWCVTFFRC it was 0.642 ± 0.33; in that of RRRFTIGASVCFRQCFYCQG, -0.491 ± 1.6. In the case of SNLECV, the amyloid nucleation score is -0.019 ± 0.51.

Consider ISWQAVTSRGTCNN, for which the amyloid nucleation score was -1.01 ± 0.68. For the substance FWAHMMRIASNYKFSLYL, the amyloid nucleation score result was “inactive”.

CGNSFTKLTTMLTRHHIADG gave an amyloid nucleation score of 0.437 ± 0.38. For CNILVTRFSNSREFNRCTWR the value was “inactive”; for VLFGS, -0.462 ± 0.93.

For the substance EHLISYATYEVLVSTWNSFE, the amyloid nucleation score entry was “inactive”. As for SYSEFSVEGFKGHVGAYGG, the amyloid nucleation score was -0.136 ± 0.29. In the case of IGGPYLVGSHKLKLWPWLES it was -0.575 ± 0.34. WACMWAQSPYGAFFIVSMED: the amyloid nucleation score was -0.223 ± 0.38. RRLMNMLEGGHMGG had an amyloid nucleation score of 0.083 ± 0.29. As to LSTTKAIALSYLYGQNVKWS, the amyloid nucleation score is 0.092 ± 0.21.

YNWYPEWLCYIFRTKQVVGT showed an amyloid nucleation score of 0.382 ± 0.45.
